B1: Beta-adrenergic receptor kinase 1 (Homo sapiens), P25098 (parent)
chain: MADLEAVLADVSYLMAMEKSKATPAARASKKILLPEPSIRSVMQKYLEDRGEVTFEKIFSQKLGYLLFRDFCLNHLEEARPLVEFYEEIKKYEKLETEEERVARSREIFDSYIMKELLACSHPFSKSATEHVQGHLGKKQVPPDLFQPYIEEICQNLRGDVFQKFIESDKFTRFCQWKNVELNIHLTMNDFSVHRIIGRGGFGEVYGCRKADTGKMYAMKCLDKKRIKMKQGETLALNERIMLSLVSTGDCPFIVCMSYAFHTPDKLSFILDLMNGGDLHYHLSQHGVFSEADMRFYAAEIILGLEHMHNRFVVYRDLKPANILLDEHGHVRISDLGLACDFSKKKPHASVGTHGYMAPEVLQKGVAYDSSADWFSLGCMLFKLLRGHSPFRQHKTKDKHEIDRMTLTMAVELPDSFSPELRSLLEGLLQRDVNRRLGCLGRGAQEVKESPFFRSLDWQMVFLQKYPPPLIPPRGEVNAADAFDIGSFDEEDTKGIKLLDSDQELYRNFPLTISERWQQEVAETVFDTINAETDRLEARKKAKNKQLGHEEDYALGKDCIMHGYMSKMGNPFLTQWQRRYFYLFPNRLEWRGEGEAPQSLLTMEEIQSVEETQIKERKCLLLKIRGGKQFILQCDSDPELVQWKKELRDAYREAQQLVQRVPKMKNKPRSPVVELSKVPLVQRGSANGL
partner: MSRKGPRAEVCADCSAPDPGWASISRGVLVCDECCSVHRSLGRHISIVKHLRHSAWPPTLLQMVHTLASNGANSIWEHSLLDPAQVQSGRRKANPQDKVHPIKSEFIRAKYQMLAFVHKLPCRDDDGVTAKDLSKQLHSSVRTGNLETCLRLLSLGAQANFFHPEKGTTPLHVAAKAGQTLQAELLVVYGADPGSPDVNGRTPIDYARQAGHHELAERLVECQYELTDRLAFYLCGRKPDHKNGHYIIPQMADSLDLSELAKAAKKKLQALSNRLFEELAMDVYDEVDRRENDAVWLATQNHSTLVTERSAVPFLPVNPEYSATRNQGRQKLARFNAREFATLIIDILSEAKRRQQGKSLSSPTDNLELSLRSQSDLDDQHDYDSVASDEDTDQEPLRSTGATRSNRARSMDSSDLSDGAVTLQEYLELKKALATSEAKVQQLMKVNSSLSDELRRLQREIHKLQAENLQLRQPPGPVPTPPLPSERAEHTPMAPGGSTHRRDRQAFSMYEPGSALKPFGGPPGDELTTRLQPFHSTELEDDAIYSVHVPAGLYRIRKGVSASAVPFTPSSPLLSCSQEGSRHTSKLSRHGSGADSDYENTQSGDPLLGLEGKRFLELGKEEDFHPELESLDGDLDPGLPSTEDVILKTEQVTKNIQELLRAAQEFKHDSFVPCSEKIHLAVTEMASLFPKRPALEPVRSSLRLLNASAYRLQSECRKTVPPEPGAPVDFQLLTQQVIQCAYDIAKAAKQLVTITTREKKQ

The variants in one test derive from B1. Particulars: with git1_human GIT1, Q9Y2X7.
Y86D;Y92D: the “effect of a mutation on the interaction” value is on record as “increasing interaction”.

In another test the parent is B1. The conditions noted are these: with git1_human GIT1, Q9Y2X7. This is another data set of the same source.
In the case of Y13F;Y86F;Y92F, the “effect of a mutation on the interaction” value is given as “disrupting interaction”.

The variants in another test derive from B1. The conditions noted are these: with git1_human GIT1, Q9Y2X7. The source holds these as a separate data set.
Regarding S670D, the “effect of a mutation on the interaction” value is “disrupting interaction”.

The variants in a further test derive from B1. The conditions noted are these: with git1_human GIT1, Q9Y2X7. This is another data set of the same source.
For the variant S670A, the “effect of a mutation on the interaction” value is recorded as “increasing interaction”.

The values above are taken from IntAct's records for PubMed 18369319.
